Among the data in patent US6461867 are Kd values, retold here.

The Kd is the equilibrium constant for the complex coming apart. A higher Kd goes with lower affinity.

In the experiment the target is VSV-7 peptide (Vesicular stomatitis virus).

B1: soluble H-2K^b (K^bsol), empty heterodimer of truncated K^b heavy chain and murine β-2 microglobulin (other)
alpha: GPHSLRYFVTAVSRPGLGEPRYMEVGYVDDTEFVRFDSDAENPRYEPRARWMEQEGPEYWERETQKAKGNEQSFRVDLRTLLGYYNQSKGGSHTIQVISGCEVGSDGRLLRGYQQYAYDGCDYIALNEDLKTWTAADMAALITKHKWEQAGEAERLRAYLEGTCVEWLRRYLKNGNATLLRTDSPKAHVTHHSRPEDKVTLRCWALGFYPADITLTWQLNGEELIQDMELVETRPAGDGTFQKWASVVVPLGKEQYYTCHVYHQGLPEPLTLRW
beta: IQKTPQIQVYSRHPPENGKPNILNCYVTQFHPPHIEIQMLKNGKKIPKVEMSDMSFSKDWSFYILAHTEFTPTETDTYACRVKHASMAEPKTVYWDRDM
In the case of B1, binding was put at a Kd of 53 nM.
